Data from the nanobody polyreactivity screen of Harvey et al. (2022).

Assay: yeast display, Sf9 membrane polyspecificity reagent, FACS + sequencing; frameworks hold sequencing errors
In short: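 In a synthetic yeast display library (Saccharomyces cerevisiae BJ5465), nanobody expression was induced with galactose for 36–48 hours. FACS gates were set low and high (top ~1%) using anti-HA fluorescence for expression and streptavidin fluorescence for binding of the Sf9 membrane reagent. Each polyreactivity label is drawn from the gate of origin.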

Sequence	polyreactivity (PSR sort gate)
QVQLVESGGCLVQAGGSLRLTCAASGFTLGFNAMGWYRQAPGKERELVAAITIGGTTYYADSVKGRFTLSRDNAKNTVYLQMNSLKPEDTAVYYCAASPVWWYDYWGQGTQVTVSS	low polyreactivity
QVQLVESGGCLVQAGGSLRLTCAASGRTFYWNTMGWYRQAPGKERELVAAISSSGDSTYYADSVKGRFTISRDNAKNTVYLQMNCLKPEDTAVYYCAAGRRGTSTTWGQGSQVTVSS	high polyreactivity
QVQLVESGGCLVQAGGSLRYSCAASGRTFRYYGMGWYRQAPGKERELVAAISWSGGSTYYADSVKGRFTISRDNAKNTVYLQMNSLKPEDTAVYYCKVAFHWQRFHHKSAAYDYWGQGTQVTVSS	high polyreactivity
QVQLVESGGCLVQAGGSLSLSCAASGRIFGAYAMGWYRQAPGTERELVAAISSGGSTYYADSVKGRFTISRDNAKNTVYLQMNSLKPEDTAVYYCAASSGNGYGYWGQGTQVTVSS	high polyreactivity
QVQLVESGGCLVQAGGSLSLSCAHSGGNFTFYAMVWYTQAPGKERELVATINWSGGSTYYADSVKGRFTISRDNAKITVYLQMNSLKPADTAVYYCNAAWPYKSVEYWGHGTQVTVSS	low polyreactivity
QVQLVESGGCLVQAGGSRSLSCAASGSIFYRNAMGWYRQAPGKERELVAAIRGSDGSTYYADSVKGRFTISRDNGKNTVYLQMNSLKPEDTAVYSCNADTPTWPLDYWGQGTQVTVSS	low polyreactivity
QVQLVESGGCLVQAGGTLRLSCDASGITFSRNTMGWYRQAPGKERELVAAITLRGGGRTYYADSVKGRFTISRDNAKNTDYLQLNSLNPEDTAVYYCARVYSSEKAYGYWGQGTQVTVSS	high polyreactivity
QVQLVESGGDLVQAGGSLRLSCAASGITFVYNAMGWYRQAPGKESELVAGITWSGSSTYYADSVKGRFTISRDNAKNTVYFQMNSLKPEDTAVYYCAAYLYERTTRYRVYLQWKHGYWGQGTQVTVSS	high polyreactivity
QVQLVESGGDLVQAGGSLRLSCAASGSIFYINAMGWYRQAPGKERELVASISYSGTSTYYADSVKGRFTISRDNAKNTVYLQMNSLKPEDTAVYYCNSEDTPGAGDGYWGQGTQVTVSS	low polyreactivity
QVQLVESGGGCSGGRSLRLSCAASGLIFDDNAMGWYRQAPGKERELVAAITWSTSSTYYADSVKGRFTISRDNAKNNVYLQMNSLKREDTAVYYCNKRYKFRYYYWGQGTQVTVSS	low polyreactivity
QVQLVESGGGFLQAGGSLRLSCAASGRIFNYYAMGWYRQAPGTERELVAGINWSGTRTYYADSVKGRFTISRDNAKNTVYLQMNSLKPEDTAVYYCNAGRTWRAFTGDEYWGQATQVTVSS	high polyreactivity
QVQLVESGGGFVQAGCSLRLSCGASGLTFKTYAMGWYSQARGKERELVAAMSGTGGGTYYADSVKGRFTISRDNAKKTVYLQMNSQKPEDTEVYYCAALHQAYRGFDYWGQGTQVTVSS	high polyreactivity
QVQLVESGGGFVQAGGSLRLSCAASGFIFDTYAMGWYRQAPGKERELVAAITTTGGSTYYADSVKGRFTISRDTAKNTVYLQMNSLKPEDTAVYYCAARHYRIHYDYWGQGSQVTVSS	high polyreactivity
QVQLVESGGGFVQAGGSLRLSCAASGLTFVANAMGWYRQAPGTESEMVAGITQTGGSTYYADSVKGRFTISRDNAKNTVYLQMISLKPEDTAVYYCAATYRRLRYGKLYYYWGQGTQVTVSS	high polyreactivity
QVQLVESGGGFVQAGGSLRLSCAASGNIFPYNAMGWYRQAPGKERELVAAISSGGSTNYADSVKGRFTISRDNAKNTVYLQLNSLQPEDTAVYYCAAARSGGYDYWGQGTQVTVSS	low polyreactivity
QVQLVESGGGFVQAGGSLRLSCAASGRIFRYYTMGWYRKAPGKERELVAAISWTGASTYYADSVKGRFTISLDNAKNTLYLQMNSLKPEDTAVYYCAADSYIAHHGFAMDYWGQGTQVTVSS	low polyreactivity
QVQLVESGGGFVQAGGSLRLSCAASGRTFLAMGWYRQAPGKERELVAAISRTNYADSVKGRFTISRDNAKNTVYLQMNSLKPEDTAVYYCNARRSYFLRYGVNYWGQGTQVTVSS	low polyreactivity
QVQLVESGGGFVQAGGSLRLSCAASGRTYTLNAMRWYRQAPGKERELVAAITWGAGSTYYADSVKGRFTISRDNAKNTVYLQMNSLKPEDTAVYYCAARFHGAYYRYRSPSMYYWGQGTQVTVSS	high polyreactivity
QVQLVESGGGFVQAGGSLRLSCAASGSICAGYAMGWYRQAPGKERVLVAGITIGGSTNYADSVKGRFTISRDNAKNTVYLQMNSLKPEDTAVYYCAARRVQSVYRIPRRYHSYGYWGQGTQVTVSS	high polyreactivity
QVQLVESGGGFVQAGGSLRLSCAASGSIFVTYAKGWYRQAPGKERDLVAAIKYSGGSTYYADSVKGRFTISRDYAKNTVYLQMNSLKPEDTAVYYCAADERVDQGWIRMDYWGQGTQVTVSS	low polyreactivity
QVQLVESGGGFVQAGGSLRLSCAASGSTFGPYAMGWSSQAPGKDRELVAGISSGGSTYYADSVKGRFTISRDNAKNTVYLQMNSLKPEDTAVYYCATRYLYRGYSYFAYDYWGQGTQVTVSS	low polyreactivity
QVQLVESGGGFVQAGGSLRLSCAAYGSISVGYTMGWYIQAPGKEREFVAVITGTGGRTRYADSVKGRFTISRDNAKNTVYLQMNSLKPEDTAVYYCAAKIRWRGALYDYWGQGTQVTVSS	high polyreactivity
QVQLVESGGGIDQAGGSLRLSCAASGNIFDYYAMGWYRQAPGKEREFVAAISWSGARTYYADSVKGRFTISRDNAKNTVYLQMNRLKPEDTAVYYCAGGQSWRKNDYRYDYWGQGTQVTVSS	high polyreactivity
QVQLVESGGGIFQAGGSLRLSCAASGSTFDYNAMGWYRQAPGKERELVADITGSGASTSYADSVKGRFTISRDNEKNTVYLQMKILKPEDTAVYYCNADDSYFYELYGYWGQGTQVTVSS	low polyreactivity
QVQLVESGGGIFQEGGSLRLSCAASGLIFRSYDMGWYRQAPGKERELVAAITDLFWSTYYADSVKGRFTISRDNAKNTVYLQMYSLKPEDTAVYYCARDDWVYTNVEMDYWGQVTQVTVSS	high polyreactivity
QVQLVESGGGILQAGGSLRLSCAASGLTFPWYAMGWYRLAPGKERELVAAITHSDGNTYADSVKGRFTISRDKAKNTVYLQMNSLKPEDTAVYYCATDTRSQAYYYWGQGTQVTVSS	low polyreactivity
QVQLVESGGGIVLAGGSLRLSCAASGSIYYANAMGWYRQAPGKERELVAVISSGGSTYYADSVNGRFTISRDNAKNTVYLHMNSLKPEDTAVYYCAAETYYYVLPHWYKYKYGYWGQGTQVTVSS	low polyreactivity
QVQLVESGGGIVQAGCSLRIICAASGYTFGYYAMGSYRQAPGNERQFVAAITIDARTTYADSVKGRFTISRDKAKKTFYLQINSLKADDTAFYYCARGYFPYGYPWRWGYDRFDYWGQGTLVTVSS	low polyreactivity
QVQLVESGGGIVQAGGSLGLSCGASGRTCRKFSMGWYSQAPGNAWEVVAAISSRGGSTYYADSVKGRFTSSRDNAKNTVYLQMNSLIPEDTAVYYCATDSIPPSSEGDYWGQGTQGTVSS	high polyreactivity
QVQLVESGGGIVQAGGSLRISSSASGRIITAYAMGWYRQAPGKERELVAAITRSTTYYADSVKGRFTISRDNAKFSVDLQLHSLKPDDTAVFYCAADYRGTWYGYDYWGQGTHVTVSS	high polyreactivity
